Experimental findings from patent US20210054062A1 (NEURACLE SCIENCE, published 2021) are described below.

The target in assay [1] is T1, FAM19A5-rabbit Fc.
T1 construct: also called FAM19A5-rFc
Description: ELISA: FAM19A5-rFc captured on coated anti-rabbit Fc antibody, antibody at 2.8 to 2055 pM, anti-human kappa light chain-HRP, OD450. The table prints R2 of the fit as 0.999. The protocol: (§1) For the ELISA assay, the following protocol was used. Anti-rabbit Fc antibody (diluted to a concentration of 1 μg/mL in 50 mM carbonate buffer, pH 9.6) was used to coat the 96-well plates (100 μL/well) overnight at 4° C. Next, the plates were washed with the washing buffer (PBST: 0.05% Tween-20/PBS) for a total of five washes. The plates were then blocked for 1 hour at 37° C. with the blocking buffer (1% BSA/PBST) (150 μL/well) and washed again with the washing buffer. Then, 50 ng/mL of FAM19A5-rabbit Fc (also called FAM19A5-rFc) antigen diluted in blocking buffer was added to each of the wells. The plates were incubated for an additional hour at 37° C. After the incubation, the plates were washed again for a total of five washes with the washing buffer. The diluted anti-FAM19A5 antibodies in blocking buffer to different concentrations (2055 pM, 685 pM, 228.3 pM, 76.1 pM, 25.4 pM, 8.5 pM, 2.8 pM, 0 pM) were added to each of the wells, and the plates were incubated for 2 hours at 37° C. After the incubation, the plates were washed (total of five washes in the wash buffer) and then, diluted anti-human kappa light chain-HRP (1:10000 in blocking buffer) was added to the well (100 μL/well). […] This reaction was stopped using 100 μL of sulfuric acid (2N H₂SO₄), and the extent of color change was detected via absorption at 450 nm using a 96 well microplate reader (Molecular Device).

Assay [2] addresses T1, FAM19A5-rabbit Fc. Kind of assay: ELISA: FAM19A5-rFc captured on coated anti-rabbit Fc antibody, antibody at 2.8 to 2055 pM, anti-human kappa light chain-HRP, OD450. The table prints R2 of the fit as 1.000. As for the experimental part:
as §1

Residue numbers refer to the chain shown, from its start.

T1 sequence (Q7Z5A7 44-132): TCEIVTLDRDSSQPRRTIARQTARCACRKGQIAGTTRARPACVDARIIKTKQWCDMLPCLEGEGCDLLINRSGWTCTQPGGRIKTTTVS

B1: Anti-FAM19A5 antibody ("S5-SG") (antibody, V domains shown)
VH: AVTLDESGGGLQTPGGALRLSCKASGFTFSSYQMGWVRQAPGKGLEWVSAINKGGSDTSYGSAVKGRATISRDNGQSTLYLQMNSLRAEDTAVYFCAKGSASYITAATIDAWGHGTEVIVSS
VL: ALTQPSSVSANPGETARITCSGGASSGYGYGWYQQKPSSAPLTVIYKDSERPSDIPSRFSGSSSGSTHTLTISGVQAEDEAVYFCGNDDYSSDSGYVGVFGAGTTLTVL
notes: The ELISA detected it with anti-human kappa light chain-HRP; also called deimmunized clone S5-SG; S5-2.GKNG antibody
Usually EC50 stands for the midpoint of the concentration-response curve. Turning to B1, the EC50 in the assay with FAM19A5-rabbit Fc [1] is 0.21 nM.

B2: Reference anti-FAM19A5 antibody ("1-65") (antibody, V domains shown)
VH: AVTLDESGGGLQTPGGALSLVCKASGFTFSSYQMGWVRQAPGKGLEWVGVINKSGSDTSYGSAVKGRATISRDNGQSTVRLQLNNLRAEDTGTYFCAKGSASYITAATIDAWGHGTEVIVSS
VL: ALTQPSSVSANPGETVKITCSGGGSSGYGYGWYQQKSPSSAPLTVIYWNDKRPSDIPSRFSGSKSGSTHTLTITGVQAEDEAVYFCGNDDYSSDSGYVGVFGAGTTLTVL
notes: The ELISA detected it with anti-human kappa light chain-HRP; also called 1-65 antibody; clone 1-65
Molecule B2 showed an EC50 with FAM19A5-rabbit Fc [2] of 0.13 nM.

B3: Anti-FAM19A5 antibody ("SS01-13-s5") (antibody, V domains shown)
VH: B1 VH with G54S
VL: B1 VL
notes: The ELISA detected it with anti-human kappa light chain-HRP; also called deimmunized clone 1-65; deimmunized 1-65 antibody
In the assay with FAM19A5-rabbit Fc [2], B3 gave an EC50 of 0.38 nM.
